Results taken from article PMC12399007.

Assays:
[1] = target: F-actin (rabbit skeletal muscle actin, polymerized) (rabbit) (UniProt P68135); experiment: co-sedimentation; high-speed centrifugation (HSC, 1 h, 40,000 rpm, 20 °C); 3.0 µM F-actin pre-incubated with 0.3 µM fascin for 20 min, titrated with Tpm2 isoforms 0-3.0 µM; 5 mM Tris, 100 mM NaCl, 2 mM MgCl2, 1 mM DTT, pH 7.5; Hill fit, apparent Kapp; fascin band in the pellets also quantified
[2] = target: F-actin (rabbit skeletal muscle actin, polymerized) (rabbit) (UniProt P68135); experiment: co-sedimentation; high-speed centrifugation (HSC); 3.0 µM F-actin, alone or pre-incubated 15 min with 2.0 µM Tpm2 isoform, incubated with fascin 0-1.1 µM for 1 h at RT; 5 mM Tris-HCl, 100 mM NaCl, 2 mM MgCl2, 1 mM DTT, pH 7.5; Hill fit, apparent Kapp
[3] = target: F-actin saturated with Tpm2.1 (rabbit | human) (UniProt P68135); experiment: as above

percent reduction of fascin bound to F-actin [1] [%] | Ka [2] [M⁻¹] | Ka [3] [M⁻¹] | Substance
30 | – | – | Tpm2.4, recombinant N-terminally acetylated human tropomyosin isoform encoded by TPM2 (natural protein)
– | 1.15e+07 | 8e+06 | recombinant mouse fascin-1 with GPLGS N-terminal extension (GST tag cleaved) (natural protein)
